Experimental data as given in patent publication US20110136121A1 (TORAY INDUSTRIES, published 2011).

T1: canine CAPRIN-1, endogenous (canine tissue sections; serum of cancer-bearing dogs) (dog, UniProt A0A8I3S8S8 2-717)
T1 construct: Endogenous protein or fragment of it; also called antigen polypeptide contained in specimens (dog)
T1 sequence: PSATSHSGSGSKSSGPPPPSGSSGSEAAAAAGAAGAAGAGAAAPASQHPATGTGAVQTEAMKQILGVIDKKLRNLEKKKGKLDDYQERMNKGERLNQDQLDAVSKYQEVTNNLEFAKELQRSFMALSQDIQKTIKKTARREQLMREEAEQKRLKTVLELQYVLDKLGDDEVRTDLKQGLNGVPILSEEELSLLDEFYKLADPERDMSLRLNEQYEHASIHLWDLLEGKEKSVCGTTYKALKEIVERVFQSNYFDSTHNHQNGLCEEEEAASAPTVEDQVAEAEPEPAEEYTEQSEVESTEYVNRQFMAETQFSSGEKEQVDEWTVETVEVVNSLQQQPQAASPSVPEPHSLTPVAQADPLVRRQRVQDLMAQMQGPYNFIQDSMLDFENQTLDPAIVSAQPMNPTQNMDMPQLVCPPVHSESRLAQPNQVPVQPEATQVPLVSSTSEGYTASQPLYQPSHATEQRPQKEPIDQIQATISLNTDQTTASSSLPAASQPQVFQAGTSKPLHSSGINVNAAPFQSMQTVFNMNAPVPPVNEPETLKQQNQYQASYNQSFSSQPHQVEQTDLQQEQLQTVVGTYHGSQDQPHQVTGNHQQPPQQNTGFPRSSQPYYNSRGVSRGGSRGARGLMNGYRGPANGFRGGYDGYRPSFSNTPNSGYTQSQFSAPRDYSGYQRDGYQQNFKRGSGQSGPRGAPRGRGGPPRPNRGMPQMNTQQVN

B1: monoclonal antibody #6 (antibody, V domains shown)
VH: LQESGAELARPGASVKLSCKASGYTFTSYWMQWVKQRPGQGLEWIGAIYPGDGDTRYTQKFKGKATLTADKSSSTAYMQLSSLASEDSAVYYCARGEYGNYFAYWGQGTTVTVSS
VL: TSDASLGERVTITCKASQDINSYLSWFQQKPGKSPKTLIYRANRLVDGVPSRFSGSGSGQDYSLTISSLEYEDMGIYYCLQYDEFPLTFGGGTKLEIKQ
notes: mouse hybridoma monoclonal antibody; also called anti-CAPRIN-1 monoclonal antibody #6
B2: monoclonal antibody #2 (antibody, V domains shown)
VH: EVQLHQFGAELVKPGASVKISCKASGYTFTDYNMDWVKQSHGKSLEWIGDINPNYDSTSYNQKFKGKATLTVDKSSSTAYMELRSLTSEDTAVYYCARSRSYDYEGFAYWGQGTLVTVSA
VL: DIQLTQSPASLSASVGETVTITCRASGNIHNYLAWYQQKQGKSPQLLVYNAKTLADGVPSRFSGSGSGTQYSLKINSLQPEDFGSYYCQHFWSTLTFGGGTKLEIK
notes: mouse hybridoma monoclonal antibody; also called anti-CAPRIN-1 monoclonal antibody #2
B3: monoclonal antibody #3 (antibody, V domains shown)
VH: B2 VH
VL: SGDRVSLSCRASQSISNYLHWYQQKSHESPRLLIKYASQSISGIPSRFSGSGSGTDFTLSINSVETEDFGMYFCQQSNSWPYTFGAGTKLEIKQ
notes: mouse hybridoma monoclonal antibody; also called anti-CAPRIN-1 monoclonal antibody #3

Key:
[1] = target: T1, canine CAPRIN-1, endogenous (canine …); test: sandwich ELISA: polyclonal anti-SEQ ID NO: 43 immobilised, serum of cancer-bearing dogs, monoclonal antibody 1 ug/ml as secondary antibody
Text: With the use of the polyclonal antibody against CAPRIN-1-derived peptide (SEQ ID NO: 43) obtained in Example 3 (1) and each monoclonal antibody against the CAPRIN-1 protein obtained in Example 3 (2) in combination, the antigen polypeptide itself contained in specimens (cancer-bearing living organism-derived serum) reacted positive upon cancer diagnosis using the polypeptide of CAPRIN-1 in Example 4 (1)-(3) was detected by Sandwich ELISA. The polyclonal antibody was used as a primary antibody and each monoclonal antibody was used as a secondary antibody. The serum protein level of the protein specifically reacting with each of the above antibodies was measured.
The primary antibody was immobilized by adding the polyclonal antibody diluted to a concentration of 5 μg/ml with phosphate buffered saline to 96-well immobilizer amino plates (Nunc) at 100 μl/well and then shaking the plates at room temperature for 2 hours. Blocking was performed by adding a 50 mM sodium bicarbonate buffer solution (pH 8.4) (hereinafter, blocking solution) containing 0.5% BSA (bovine serum albumin, Sigma Aldrich Japan) at 100 μl/well and then shaking at room temperature for 1 hour. Subsequently, a cancer-bearing living organism-derived serum diluted using the blocking solution was added at 100 μl/well and then the resultants were shaken at room temperature for 3 hours for reaction. The dilution rate at this time was adjusted with 10-fold (10-1000-fold) dilution series. After 3 instances of washing with phosphate buffered saline (hereinafter, PBS-T) containing 0.05% Tween20 (Wako Pure Chemical Industries, Ltd.), each monoclonal antibody as a secondary antibody diluted to a concentration of 1 μg/ml with the blocking solution was added at 100 μl/well and then the resultants were shaken at room temperature for 1 hour for reaction. After 3 instances of washing with PBS-T, an HRP-labeled anti-mouse IgG (H+L) antibody (Invitrogen Corporation) as a tertiary antibody diluted 5000-fold with the blocking solution was added at 100 μl per well and then left to stand at room temperature for 1 hour. […]

[2] = target: feline CAPRIN-1, endogenous (serum of cancer-bearing cats) (cat); test: sandwich ELISA: polyclonal anti-SEQ ID NO: 43 immobilised, serum of cancer-bearing cats, monoclonal antibody 1 ug/ml as secondary antibody

Binder	absorbance at 450 nm (polypeptide level) [1]	absorbance at 450 nm (polypeptide level) [2]
B1	≥ 0.3	–
B2	≥ 0.3	> 0.3
B3	≥ 0.3	–
